Assay: soluble on expression in E. coli; label from the status in PepcDB or PDB records

Sequence	soluble on expression in E. coli
MGSDKIHHHHHHMWFCFLKSGFIIIKQILSTPFFSYKYNIKILINFKLISNIIEHKMLEYANKITLKGDNIMKFAVITDIHGNFDALQTVLDDIDSRDDIEKIYNLGDNIGIGHETNKVLDTIFDRDDMEMIAGNHDEAIMSLVNGTPYPEDLKGKFYEHHQWIEGHLDESYYDEINQLPRYIEMTIKGKKILFIHYEIENDKMSAPIDEQPFAPITKDDEQAISELFKDKEADLILFGHNHRLHMFDDKSTVYFNPGSVGLNNGSNTVYGIITVNEKGISVERVKLAYNNEEFLAGFEEKQVPAREFIFKNFI	not soluble
MGSDKIHHHHHHMWMNGFARWMDKLKVLSSEAGSKACWGYDACPAGDGIIASIDGYSMDSSRLPWMSLGDWGWKSVVAAASDVAASGGAPFHVMYSLGLDSVERAVDVARGVGEAAVWMGATVGKSDFNTSKSPWIDVAVLGKAEKPLGRFGAKPGMTLVQVGASGYGLLSHLTLQGRLSRDDLPGPVVEYTRRPKPPLRIGPELSSCEAAASIDNSDGLGASLHLLGVESGVSVVIDDILVDRHVEKVLDELGLEKWAVLQSWEDYNIVAVGGDGSIDCILRWCRRLNIECATVGYTSSDGAGRVLIEGGRREFRVSGWTWL	not soluble
MGSDKIHHHHHHMWQAISRLLEEHHGTADIQEHRELPGGEIHPAWYVRYGEHDVFVKCDSREMLAKFTAEADQLHLLSRSNTVRVPKVYGVGSSRDYSFLLLQYLPVKPLDAHSAWCLGEQLARLHQWSDQPQFGLDFDNDLSTTPQPNSWQRRWATFFAEQRIGWQLQLAAEKGMHFGHIETLIARVDERLAGHQPQPSLLHGDLWPDNCANSQDGGYLFDPACYWGDRECDLAMLPRYPALPAQIYDGYQSVWPLDKDFIDRQPIYQIYYLLNRANLFGGKNIVEAQQLIERQLLS	not soluble
MGSDKIHHHHHHMWTQQMIHTKRGTFELFTKGNGEPLCITHHYSQFNETGDYFADVFTSTHRVLLINLRDAGNSAKANSEKELSMIETIHDLEAIREALQLPTWHFAGHSTGGMLGLLYAITYPKSLQSLVLVGAAASNYTETPFCIYHPEHPQFHYMQHLIENLKSPHLTNEERKELSTERTKLSLHKPENYNSYFCKPIQKTMSASRMNAFSHEYPAFNLREHLPSMKTKTLIICGRYDVQCPIQYSIEMHEGIRNSIFVTFEESNHYPFLEEAAQFTSTIRTFYKLLH	not soluble
MGSDKIHHHHHHMYDATHLFEPPVMTEEEKMERFKERIENGEKIEADDWMPDFYRDTLIKLISMHGISEIMGALPEKEWVPKAPSLRRKLGIMAKVQDEMGHGQLLLRVVEDLMKPYGKTRADLMDDLFTGRLKFHNVFHMPTRSWADAGTIGWLVDGAAIITQTNMLGASYGPYARALQRICAEEVFHAQHGESIIMALAEGTPEQKAMIQESLDEWWESLLMFFGPASKETTGTSKQDVTIAYKIRTKTNEELRQNFFTKYVPRIRSLGLIIPDPTLRFDEETGQWIYAQPDWTEFKKIIQGGCPRSKERLALRQTSYQNNAWVREALAETIG	not soluble
MGSDKIHHHHHHMYLKETLDQFASIDNILKLLKKNPSFNKHCIQERLPQKTIITSNKQRKHIYIIEEGFMKLIFDDNKPRDFSYILSKGAFPFLPVYTEDIPEHTMMVALTDIVWWKIDISFFKGMMETEDPRNYLMLHQLAETRRRFYTIAYQEKLTSRESIYYSLSTMIEFGLRISEKIVELPEFLTYQILADHANTSKSYTSKVLGHLREEGILESQRKPWRINDVQKLQKLIEMNVPLVKIQKN	not soluble
MGSDKIHHHHHHMYNVMNCIIVDDEPLAREAMKLLIEEAECLQLVGSFNSAATASDFMEQHVVDLVFLDIQMPGITGIEFARTISKRTLVIFTTAYTEYALDSYEVDAIDYLIKPVEAERFQKAVEKAQSYHSLLLQEEKEAIETIVAAEYFFVKAERRYFKVNFSDILFVEGLKDYVILQLGEQRIITRMSLKAVFDLLPKDSFLRVNKSYIVNTAHIDSFDNNDIFIKSYEIAIGNSYRDDFFEGFVMKQQRW	not soluble
MGSDKIHHHHHHMYREFYGLREKPFSKTPDPRYLFLSRGHREALARLQYAVEERELALLTGDIGCGKTTISRALMDAMGEACRFCFIFNPRLSPLEFLRVIARSLGIDNPAGAKDELLKQLTETLYLMHAEGRCPVIVVDEAQLIPDRDVFDEIRLLTNYQLDDQNLMSVVLMGQPELRQILADPVHEPLRQRIALHYHLQPLSLDETLEYIDFRLEVAGGTPGLFSPDAVQRIHELSGGVPRKINILATNALLVGYGRDAAWIDASLVEELRDEANLY	not soluble
MGSDKIHHHHHHMYSDLNEGVKPYRMTKSHKNIKQCDLLIAGGAAVGLTLAIALKQAAPELKINIVDAAPQEVIPVSNIRALALAAASIRMLKQLQCWEHIAPHAQPIHSMIITDAYTNDPVKPTLLTFEGDITPNEPFAAMVEHKELLNALKKRAKDLDIPFITNMRIVDFHQEDQHTTVTLSNKEIWQTKLLIAADGAHSKLREKAGLKKFSHSYTQTAIICTVEHEKPHHGQAIQHFLPAGPFALLPLKGNRSAIVWNEDHKTAQYYLKADALIFETEIEKRIGHRYGKLSWNGERQGFPLNLSLTRQCIKPRFALIGDAAHTIHPLAGQGLNLGLRDSAALAEVIIETARLGLDIGSLTALERYQSWRRFEIVRMALSNDWLNKLFSNDNLLLRTLRDVGLGIVNQTPKVKKYFIQEAAGLTPHAPRLLHGLPL	not soluble
MGSDKIHHHHHHNRDPHEGERGLTVAIDNTQCPDVPIGAIKLYIYGTGGNLYATYNYADARGIASVLHPLEAGHYTVAVVINADEEAAETSTLTALHEWLEIEMSHETNLLSGIAEVNVTEDGISPVTVFLQRGVFTLSTLRLQLTLPAPKLPDYTPEKSKTRAAGTANTIRCVAELCKAGTDIVVLHKAVTPVPQADGTYLVELELAEGSYDLRLWTDYARADNPLADTFYHTESLKAVTIVTKPYTANTDAKDAAYYNKSDITLSKEGATMNVQLQRPLAKYRLIAKDVENYRKLMEAKPDIYPPLKNLTVKVLYEGYFPSGFNVSTGKPNDAVGGISYSQVSLHYNDVDNEVLLGGDWVLVNGTESLVNVTVTVTDNLGNTLCRASGVKINYRNSHLTTVYGNFLTAGINKGGIDINTEWSGIYNVWF	not soluble
MGSDKIHHHHHHNRRELTYSPEATITISADWSQSGLNEKEQDYGATAIFYPTDGSTPFVALMGDRTYKTLCLKEGCYNVVLFNRSFDDFGNLCFRGEENYQTLEAYVKKMEIRNESSSERIIMESPDELAADYIEGFEVTSDMPENYSSAITQQSNRNSTRNENSCHLRFTPKKLTQKITVKIRIKGMNNIRKATCTLDGIAESIFLVSKQNSEKTVTQVLRLSNPIYDSGSVTEGTLSTTISVFGFDVEIPHNLHLKAKLVDGKTIFEESFNDLAIRRLDEEDGTMSVFIDMACEKTVPNVKTEGSSGFDADVDKWNDEVNSDIDI	not soluble
MGSDKIHHHHHHQTKAEKNGWRLGMQSYSFHLFPLTEALDKTQELGLKYIEIYPGHKLGGKWGDKVFDFNLDAQTQKEIKELAASKGIKIVGTGVYVAEKSSDWEKMFKFAKAMDLEFITCEPALSDWDLVEKLSKQYNIKISVHNHPQPSDYWKPENLLKAISGRSQSLGSCSDVGHWRREGLNQIDCLKQLKGRIISLHFKDIAPKKAGENEQHDVIWGTGILDVKGMLKELKSQNFKGVFSIEYEYNWENSVPDIKECIQYFNKTANEIL	not soluble
MGSDKIHHHHHHRECVQTSLSWRNDTTGIWETAGWWNSANVLTATIRYGAVTKDPAIPSVIEDVFEKARHYQVGVDSTGTPRYCDNFINDYYDDEGWWALAWIEASKLTGEKKYLDMAEIIFDDMTTGWSDACGGGIFWKKNPLHYKNSIANNLFSLTAIRLYKATQNPAYLDWFKKNVDWYMRTGMINTNIYQIEDGTKDDCTPNRNAHYTYNQGVAIAVLAEMYLQTNDKSYLELAEKIADATITTQLITDEGILREMKPEIDDSNDGVQFKGIFIRHLAFLYEVTKNPAYKDFILKNAESIITKDYDPTSKSFGCYWYGPFHKENSAANACALECVIEAYDLTK	not soluble
MGSDKIHHHHHHSDKKNTADESEKGVSTVLPDTKNEVAVQILKKRDFHHELVSNGKISARGKADLRFETGEVIAHIYVKNGDRVQKGQKLADLDKFRLEQKLSQSEDALLKAELELKDVLIGQGYSPDDFSKVPAETMKIAKVKSGYEQSKSQYELAKREMEHATLIAPFDGVVANLFSKPYNPANTSEAFCTIIDSKGMEADFTVLENELAFIRMGDKVVITPYAGGDAFEGSVSEINPLVDANGMVKVKALVNAGGKLFSGMNVRVSVRRSLGERLVIPKSAVVLRSGKQVVFTLKDGKAMWNYVNTGLENAIECVVSDKSQKGIEDGLLEGDTVIVTGNLNLAHEAEVYVK	not soluble
MGSDKIHHHHHHSKDKKSTDTKQTETKKTAKTDGTMTDGTYKLEEKNFDDKGWKGFMSIEVKDGKITKANYDYKNKDGKLKSEDADYEKAMKDKVGTGPQEYLKQLSDSLVKGQSASSVEVVSGATHSSDAFINYANQLIQAAQKADTTTISINNLAKMEDGTYKLEEQNYAHGYRVVFSMDVKDGKITKSDYNYVDKDGKLKSDDADYEKNMKAKSGTGPKEYIPALNKSLVEKQDVAAVDTVSGATNSSNQFKIYAAQLQNAAQNGNTDTIKVYNLVEAE	not soluble
MGSDKIHHHHHHSLDQAKKLYNDGKYAEAKPVFEKLVKQAPSNASYNQWYGVCCFETGDLAGAEKHLKVAVKRRVQDAYRYLGEVYYQTYRFNEAEEMFDEYITLLTKKKQDVEPYQIRMDLANKASRMLDKVENVQIIDSLVVDKDNFLSAYTLSEESGTLTTYQDFFQTNDPGNSSVYMNQKEDKIYYAHSTDGNHNCLFTQSKLIDQWGDEKQLPMNINSDADDGYPFVLSDGVTIYYASKGNSSLGGYDLFVTRYNINSDTYLTPEQLGMPYNSPFNDYMMVIDEAKQLGWFVSDRYQPEGKVCVYLFIPNDNRERVDSEDIELKRARASIASIKDSWKPGSNYEELIHLAHTEIPYGRIEIKKDFTFPIHNDIVYYTLDDIQSPEAKNYYEKVVSIHKQIKELNEKLESLRASYIKGNKAKREQLKPTILDTEEKLNNLLGQPDEWEKKARNAEIVYLRNNHK	not soluble
MGSDKIHHHHHHTEETAKVVPMAVITPAINQLTDQEKAEGWALLFDGKTTKGWRGAHKDAFPDHGWMVKDGELIVQKSDGSESTNGGDIVTEGEYSAFEFSVDFKITEGANSGIKYFVTEQEKQKGSAYGLEFQLLDDAKHPDAKLYTTFPGSRTLGSLYDLKKSENIHFNGVGEWNTAVVKVFPNNHVEHWLNGVKVLEYERGSKEFRDLVKGSKYADPSYNAGGAFGEAPKGHILLQDHGDEVAFRNIKVKELK	not soluble
MGSDKIHHHHHHTQRWLSGNISNFQYLMHLNTLAGRCYNDLSQYPIFPWVLADYTSSQLDFNNISTFRDFSKPMGAQSPDRLEQFLKRFREWDDPSGETPPYMYGTHYSSAMIVVSYLVRLEPFTQQFLSLQGGHFDLADRMFHSVGDAWTSASRNNMADVKELIPEFFTLPEMFTNTNHFDLGVKQNGIHVNDVLLPAWCHGDPREFIRLHRQALESDYVSSHLHEWIDLIFGYKQNGEEAVKNSNLFHHLFYEGSVDFERIDDPLTRNATIGFVNNFGQIPTQLFKKPHPQK	not soluble
MGSDKIHHHHHHVAISVAGGVRPGKIIEIEHRLYQQLILGKHKASPTLLDDLDLELEADANKLDVEREAILARLMKQIKAKEVFEAVSSQLHETVNNAIEHQLASPELVLAKSEINESQILLLELLLAKNLDATRLRPLISNLSWLCRDLTNMVNSPSFRARRPQSSDVRVTDIKLVMNYIGIENLRTIIPYFCLRNWLPSANAKLLWTTRKLWRYSIVSGIAANALAQLHNTDSALVYSSALLNQLGTSVVLSLSARLFDQTWGAWIREASSSRDKEVYDAVIATEFPAKAVFEQVLSHGHKLNWQLLELLKFEASPLTGLLKELDLTLSYRELSPQAALVARANCYAKVVLLEEMRQIDPQEKRLMFDYYELTEQEVLRLKAQNYRKLDLL	not soluble
